Results as given in US9994628B2, “Peptides and combination of peptides for use in immunotherapy against various tumors” (IMMATICS BIOTECHNOLOGIES GMBH, priority 2015, dated 2018).

The substances below were run against HLA-A*02:01 (Homo sapiens, UniProt P04439, D140Y/D185E/D98H/E176V/E277Q/G131W/G231S/I119V/I121R/I166T/I218V/L300P/L318F/N151K/N90K/P208A/P217A/Q86G/Q94H/R138H/R169H/T345S) (assay: MHC binding assay: UV-ligand exchange and β2m ELISA (peptide exchange yield, Table 7)). Details: binding of HLA-class I restricted peptides to HLA-A*02:01, UV-ligand exchange.
Source text: Candidate peptides for T cell based therapies according to the present invention were further tested for their MHC binding capacity (affinity). The individual peptide-MHC complexes were produced by UV-ligand exchange, where a UV-sensitive peptide is cleaved upon UV-irradiation, and exchanged with the peptide of interest as analyzed. Only peptide candidates that can effectively bind and stabilize the peptide-receptive MHC molecules prevent dissociation of the MHC complexes. To determine the yield of the exchange reaction, an ELISA was performed based on the detection of the light chain (β2 m) of stabilized MHC complexes. The assay was performed as generally described in Rodenko et al. (Rodenko et al., 2006).
96 well MAXISorp plates (NUNC) were coated over night with 2 ug/ml streptavidin in PBS at room temperature, washed 4× and blocked for 1 h at 37° C. in 2% BSA containing blocking buffer. Refolded HLA-A*02:01/MLA-001 monomers served as standards, covering the range of 15-500 ng/ml. Peptide-MHC monomers of the UV-exchange reaction were diluted 100 fold in blocking buffer. Samples were incubated for 1 h at 37° C., washed four times, incubated with 2 ug/ml HRP conjugated anti-β2 m for 1 h at 37° C., washed again and detected with TMB solution that is stopped with […]. Absorption was measured at 450 nm. Candidate peptides that show a high exchange yield (preferably higher than 50%, most preferred higher than 75%) are generally preferred for a generation and production of antibodies or fragments thereof, and/or T cell receptors or fragments thereof, as they show sufficient avidity to the MHC molecules and prevent dissociation of the MHC complexes.

Row | Substance | Peptide exchange (MHC class I binding score, peptide exchange yield)
1 | 1 (KLQEKIQEL; listed as Homo sapiens) [compound 1] | ++++ (≥75% = ++++)
2 | 3 (RVIDDSLVVGV; listed as Homo sapiens) [compound 3] | +++ (≥50% = +++)
3 | 4 (VLFGELPAL; listed as Homo sapiens) [compound 4] | +++ (≥50% = +++)
4 | 5 (GLVDIMVHL; listed as Homo sapiens) [compound 5] | +++ (≥50% = +++)
5 | 6 (FLNAIETAL; listed as Homo sapiens) [compound 6] | ++++ (≥75% = ++++)
6 | 7 (ALLQALMEL; listed as Homo sapiens) [compound 7] | +++ (≥50% = +++)
7 | 9 (SLITGQDLLSV; listed as Homo sapiens) [compound 9] | +++ (≥50% = +++)
8 | 10 (QLIEKNWLL; listed as Homo sapiens) [compound 10] | +++ (≥50% = +++)
9 | 14 (YTFSGDVQL; listed as Homo sapiens) [compound 14] | +++ (≥50% = +++)
10 | 17 (GLLPSAESIKL; listed as Homo sapiens) [compound 17] | ++++ (≥75% = ++++)
11 | 18 (KTASINQNV; listed as Homo sapiens) [compound 18] | ++ (≥20% = ++)
12 | 24 (KVWSDVTPL; listed as Homo sapiens) [compound 24] | +++ (≥50% = +++)
13 | 27 (GLLGKVTSV; listed as Homo sapiens) [compound 27] | +++ (≥50% = +++)
14 | 30 (IITEVITRL; listed as Homo sapiens) [compound 30] | +++ (≥50% = +++)
15 | 31 (GLLETTGLLAT; listed as Homo sapiens) [compound 31] | +++ (≥50% = +++)
16 | 35 (VIIKGLEEI; listed as Homo sapiens) [compound 35] | ++ (≥20% = ++)
17 | 36 (TVLQELINV; listed as Homo sapiens) [compound 36] | +++ (≥50% = +++)
18 | 37 (QIVELIEKI; listed as Homo sapiens) [compound 37] | ++ (≥20% = ++)

Row | Substance | Peptide exchange (MHC class I binding score, peptide exchange yield)
19 | 41 (IVTEIISEI; listed as Homo sapiens) [compound 41] | +++ (≥50% = +++)
20 | 42 (KQMSISTGL; listed as Homo sapiens) [compound 42] | ++ (≥20% = ++)
21 | 44 (AVFNLVHVV; listed as Homo sapiens) [compound 44] | +++ (≥50% = +++)
22 | 45 (FLPVSVVYV; listed as Homo sapiens) [compound 45] | +++ (≥50% = +++)
23 | 47 (GLNGFNVLL; listed as Homo sapiens) [compound 47] | +++ (≥50% = +++)
24 | 48 (KISDFGLATV; listed as Homo sapiens) [compound 48] | +++ (≥50% = +++)
25 | 50 (ILLSVLHQL; listed as Homo sapiens) [compound 50] | +++ (≥50% = +++)
26 | 58 (HLLGEGAFAQV; listed as Homo sapiens) [compound 58] | +++ (≥50% = +++)
27 | 59 (ALADGIKSFLL; listed as Homo sapiens) [compound 59] | +++ (≥50% = +++)
28 | 62 (SLVENIHVL; listed as Homo sapiens) [compound 62] | +++ (≥50% = +++)
29 | 64 (SLYAGSNNQV; listed as Homo sapiens) [compound 64] | ++ (≥20% = ++)
30 | 65 (SLSEKSPEV; listed as Homo sapiens) [compound 65] | ++ (≥20% = ++)
31 | 66 (AMFPDTIPRV; listed as Homo sapiens) [compound 66] | ++ (≥20% = ++)
32 | 67 (FLIENLLAA; listed as Homo sapiens) [compound 67] | +++ (≥50% = +++)
33 | 69 (LKVLKADVVL; listed as Homo sapiens) [compound 69] | ++ (≥20% = ++)
34 | 70 (GLTEKTVLV; listed as Homo sapiens) [compound 70] | ++ (≥20% = ++)
35 | 71 (HMSGKLTNV; listed as Homo sapiens) [compound 71] | ++ (≥20% = ++)

Continued, values first:

Row | Peptide exchange (MHC class I binding score, peptide exchange yield) | Substance
36 | +++ (≥50% = +++) | 11 (LLDPKTIFL; listed as Homo sapiens) [compound 11]
37 | +++ (≥50% = +++) | 12 (RLLDPKTIFL; listed as Homo sapiens) [compound 12]
38 | +++ (≥50% = +++) | 13 (RLHDENILL; listed as Homo sapiens) [compound 13]
39 | +++ (≥50% = +++) | 16 (SLADLSLLL; listed as Homo sapiens) [compound 16]
40 | ++ (≥20% = ++) | 19 (KVFELDLVTL; listed as Homo sapiens) [compound 19]
41 | ++ (≥20% = ++) | 20 (ALVEKGEFAL; listed as Homo sapiens) [compound 20]
42 | +++ (≥50% = +++) | 21 (YLMDDFSSL; listed as Homo sapiens) [compound 21]
43 | +++ (≥50% = +++) | 22 (LMYPYIYHV; listed as Homo sapiens) [compound 22]
44 | +++ (≥50% = +++) | 23 (ALLSPLSLA; listed as Homo sapiens) [compound 23]
45 | +++ (≥50% = +++) | 25 (LLWGHPRVALA; listed as Homo sapiens) [compound 25]
46 | +++ (≥50% = +++) | 26 (VLDGKVAVV; listed as Homo sapiens) [compound 26]
47 | ++ (≥20% = ++) | 28 (IKVTDPQLLEL; listed as Homo sapiens) [compound 28]
48 | ++ (≥20% = ++) | 29 (KMISAIPTL; listed as Homo sapiens) [compound 29]
49 | ++ (≥20% = ++) | 33 (TLDRNSLYV; listed as Homo sapiens) [compound 33]
50 | ++ (≥20% = ++) | 38 (VLQQESNFL; listed as Homo sapiens) [compound 38]
51 | +++ (≥50% = +++) | 40 (KIWEELSVLEV; listed as Homo sapiens) [compound 40]
52 | ++ (≥20% = ++) | 49 (KLIGNIHGNEV; listed as Homo sapiens) [compound 49]
53 | ++ (≥20% = ++) | 51 (LDSEALLTL; listed as Homo sapiens) [compound 51]
54 | ++ (≥20% = ++) | 52 (TIGIPFPNV; listed as Homo sapiens) [compound 52]
55 | + (≥10% = +) | 53 (AQHLSTLLL; listed as Homo sapiens) [compound 53]
56 | +++ (≥50% = +++) | 54 (YLVPGLVAA; listed as Homo sapiens) [compound 54]
57 | +++ (≥50% = +++) | 55 (HLFDKIIKI; listed as Homo sapiens) [compound 55]
58 | ++ (≥20% = ++) | 57 (TLYPGRFDYV; listed as Homo sapiens) [compound 57]
59 | +++ (≥50% = +++) | 60 (YLFSQGLQGL; listed as Homo sapiens) [compound 60]
60 | +++ (≥50% = +++) | 61 (ALYPKEITL; listed as Homo sapiens) [compound 61]
61 | +++ (≥50% = +++) | 63 (KLLPMVIQL; listed as Homo sapiens) [compound 63]
62 | +++ (≥50% = +++) | 68 (QLMNLIRSV; listed as Homo sapiens) [compound 68]
63 | ++ (≥20% = ++) | 72 (VLSTRVTNV; listed as Homo sapiens) [compound 72]
